Test results published in article PMC4338599.

Molecular target: Ku70-Ku80 heterodimer (Ku);PAXX WT (PAXX1-204, C9orf142) (human?;human, UniProt P12956;P13010;Q9BUH6 1-609;1-732;1-204, |)
Test: EMSA

Chain of Ku70-Ku80 heterodimer (Ku);PAXX WT (PAXX1-204, C9orf142) (P12956 whole entry, chain 1 of 3): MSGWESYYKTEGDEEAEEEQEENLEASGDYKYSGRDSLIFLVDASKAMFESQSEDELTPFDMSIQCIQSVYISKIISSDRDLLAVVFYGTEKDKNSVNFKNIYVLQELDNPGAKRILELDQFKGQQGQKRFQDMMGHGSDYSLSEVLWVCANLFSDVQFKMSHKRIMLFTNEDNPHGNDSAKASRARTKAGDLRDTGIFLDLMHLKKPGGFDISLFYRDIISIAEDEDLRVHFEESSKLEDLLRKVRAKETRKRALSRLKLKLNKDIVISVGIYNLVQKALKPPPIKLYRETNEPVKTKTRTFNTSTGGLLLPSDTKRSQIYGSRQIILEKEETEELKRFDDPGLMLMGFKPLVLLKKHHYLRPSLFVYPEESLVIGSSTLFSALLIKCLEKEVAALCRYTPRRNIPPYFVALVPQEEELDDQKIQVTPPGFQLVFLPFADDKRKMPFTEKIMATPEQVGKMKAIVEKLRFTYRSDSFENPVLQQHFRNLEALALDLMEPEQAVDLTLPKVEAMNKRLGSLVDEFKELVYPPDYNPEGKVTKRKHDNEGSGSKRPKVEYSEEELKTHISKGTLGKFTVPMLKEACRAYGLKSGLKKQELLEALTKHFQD
Chain of Ku70-Ku80 heterodimer (Ku);PAXX WT (PAXX1-204, C9orf142) (P13010 whole entry, chain 2 of 3): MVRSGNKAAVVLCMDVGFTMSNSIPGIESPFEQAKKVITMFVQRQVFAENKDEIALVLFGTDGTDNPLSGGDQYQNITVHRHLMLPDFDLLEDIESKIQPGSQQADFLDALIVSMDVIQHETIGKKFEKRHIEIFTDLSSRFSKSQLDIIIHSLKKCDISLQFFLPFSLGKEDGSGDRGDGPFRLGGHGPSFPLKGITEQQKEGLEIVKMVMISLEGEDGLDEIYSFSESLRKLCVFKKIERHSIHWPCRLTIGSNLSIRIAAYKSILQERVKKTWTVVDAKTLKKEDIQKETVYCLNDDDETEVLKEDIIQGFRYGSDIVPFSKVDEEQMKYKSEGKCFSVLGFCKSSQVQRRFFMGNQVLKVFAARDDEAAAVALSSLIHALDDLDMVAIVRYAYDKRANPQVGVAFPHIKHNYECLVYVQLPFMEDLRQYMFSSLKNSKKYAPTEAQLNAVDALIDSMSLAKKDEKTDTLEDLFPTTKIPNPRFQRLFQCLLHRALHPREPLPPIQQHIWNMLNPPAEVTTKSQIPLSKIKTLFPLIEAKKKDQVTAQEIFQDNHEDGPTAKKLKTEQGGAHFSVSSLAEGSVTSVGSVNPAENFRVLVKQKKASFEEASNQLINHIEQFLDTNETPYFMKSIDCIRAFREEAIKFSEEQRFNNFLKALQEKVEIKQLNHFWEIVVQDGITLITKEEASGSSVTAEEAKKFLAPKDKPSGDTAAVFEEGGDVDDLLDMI
Chain of Ku70-Ku80 heterodimer (Ku);PAXX WT (PAXX1-204, C9orf142) (Q9BUH6 whole entry, chain 3 of 3): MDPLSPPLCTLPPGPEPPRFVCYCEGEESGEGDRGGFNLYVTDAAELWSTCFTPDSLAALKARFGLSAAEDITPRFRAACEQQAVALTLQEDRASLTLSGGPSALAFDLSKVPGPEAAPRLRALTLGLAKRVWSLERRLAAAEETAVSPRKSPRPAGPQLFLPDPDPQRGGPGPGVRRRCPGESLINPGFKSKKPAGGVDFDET

B1: 50-bp 6-FAM dsDNA (dsDNA)
DNA 1: TAAATGCCAATGCTGCTGATACGTACTCGGACTGATTCGGAACTGTAACG
DNA 2: CGTTACAGTTCCGAATCAGTCCGAGTACGTATCAGCAGCATTGGCATTTA
B1: binds.
